Legend:
[1] = target: T1, NGF (nerve growth factor) (human, UniProt P01138 P01138:122-241); assay: cell_activity; neurite outgrowth, NGF 0.38 nM; SPR binding; TF-1 IC50 2.8 nM; settings: tags: amine-coupled to CM5 chip in SPR; soluble in cell assays; chain copies: 2
Method: (§1) The neurite outgrowth inhibitory activity of the aptamer obtained in Example 1 was evaluated by using Neuroscreen-1 cell, which is a subclone of PC-12 cells.
(§2) The cells (2500 cells per well) were cultured for one day in an RPMI-1640 medium containing 2.5% horse serum and 1.25% fetal bovine serum in a 96 well flat-bottom plate coated with collagen type IV. […] Two days later, the cytoplasm and nuclei were stained using Cellomics Neurite Outgrowth Kit (manufactured by Thermo Scientific), and neurite length per cell was measured by Cellomics ArrayScan VTI (manufactured by Thermo Scientific). With the neurite length per cell obtained by the addition of NGF alone as inhibitory activity 0%, and that of the cell obtained by NGF free culture for 2 days as inhibitory activity 100%, the inhibitory activity of the aptamer was calculated from the neurite length per cell obtained by culturing with the addition of NGF and the aptamer in mixture. When the inhibitory activity was 0% or below, ‘0%’ is indicated.

[2] = target: T1, NGF (nerve growth factor); assay: cell_activity; neurite outgrowth, NGF 1.1 nM; SPR binding; blocks NGF-TrkA; TF-1 IC50 >30 nM; settings: tags: amine-coupled to CM5 chip in SPR; soluble in cell assays; chain copies: 2
Method: as §1, §2

[3] = target: T1, NGF (nerve growth factor); assay: cell_activity; neurite outgrowth, NGF 1.1 nM; SPR binding; TF-1 IC50 >30 nM; settings: tags: amine-coupled to CM5 chip in SPR; soluble in cell assays; chain copies: 2
Method: as §1, §2

[4] = target: T1, NGF (nerve growth factor); assay: cell_activity; neurite outgrowth, NGF 1.1 nM; TF-1 IC50 <1.0 nM; settings: tags: human NGF; chain copies: 2
Method: as §1, §2

[5] = target: T1, NGF (nerve growth factor); assay: cell_activity; neurite outgrowth, NGF 0.38 nM; TF-1 IC50 0.044 nM; settings: tags: human NGF; chain copies: 2
[6] = target: T1, NGF (nerve growth factor); assay: cell_activity; neurite outgrowth, NGF 0.38 nM; TF-1 IC50 0.165 nM; settings: tags: human NGF; chain copies: 2
Method: as §1, §2

[7] = target: T1, NGF (nerve growth factor); assay: cell_activity; neurite outgrowth, NGF 0.38 nM; TF-1 IC50 0.193 nM; settings: tags: human NGF; chain copies: 2
Method: as §1, §2

[8] = target: T1, NGF (nerve growth factor); assay: cell_activity; neurite outgrowth, NGF 0.38 nM; TF-1 IC50 0.176 nM; settings: tags: human NGF; chain copies: 2
Method: as §1, §2

[9] = target: T1, NGF (nerve growth factor); assay: cell_activity; neurite outgrowth, NGF 0.38 nM; TF-1 IC50 0.239 nM; settings: tags: human NGF; chain copies: 2
Method: as §1, §2

[10] = target: T1, NGF (nerve growth factor); assay: cell_activity; neurite outgrowth, NGF 0.38 nM; TF-1 IC50 0.164 nM; settings: tags: human NGF; chain copies: 2
Method: as §1, §2

[11] = target: T1, NGF (nerve growth factor); assay: cell_activity; neurite outgrowth, NGF 0.38 nM; TF-1 IC50 0.218 nM; settings: tags: human NGF; chain copies: 2
Method: as §1, §2

[12] = target: T1, NGF (nerve growth factor); assay: cell_activity; neurite outgrowth, NGF 0.38 nM; TF-1 IC50 >0.3 nM; settings: tags: human NGF; chain copies: 2
Method: as §1, §2

[13] = target: T1, NGF (nerve growth factor); assay: cell_activity; neurite outgrowth, NGF 0.38 nM; TF-1 IC50 0.146 nM; settings: tags: human NGF; chain copies: 2
Method: as §1, §2

[14] = target: T1, NGF (nerve growth factor); assay: cell_activity; neurite outgrowth, NGF 0.38 nM; TF-1 IC50 0.100 nM; settings: tags: human NGF; chain copies: 2
Method: as §1, §2

[15] = target: T1, NGF (nerve growth factor); assay: cell_activity; neurite outgrowth, NGF 0.38 nM; TF-1 IC50 0.074 nM; settings: tags: human NGF; chain copies: 2
Method: as §1, §2

T1 sequence (P01138 122-241, one chain of several): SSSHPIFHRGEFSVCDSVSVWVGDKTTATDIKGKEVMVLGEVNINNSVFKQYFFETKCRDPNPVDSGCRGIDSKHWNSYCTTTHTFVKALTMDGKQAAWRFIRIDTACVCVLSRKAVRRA

Binder: GGGAGACUCGCAGAGUUGAAAGAAACCCAAAUAGUGUGCGCAC (ssRNA, 2'-F at all pyrimidines) [aptamer ID 30]
- IC50 [1]: < 300 pM

B1: aptamer ID 32 (ssRNA)
RNA: GGGAGAACUUCGACCAGAAGUCGAUAACGAACAAAACUCCCAAAGGAAUAUAUGUGCGCAUACA
modifications: 2'-F at all pyrimidines
- IC50 [2]: 1000 pM

B2: aptamer ID 43 (ssRNA)
RNA: GGGAGAACUUCGACCAGAAGUCGAUAACGAACAAAACUCCCAAAUAUGUGCGCAUACA
modifications: 2'-F at all pyrimidines
- IC50 [3]: < 3000 pM

Binder: GGGAGACUCGCCAGAGUUGAAAGAAACCCAAAUAAGUGUGCGCAC (ssRNA, 2'-F all pyrimidines) [aptamer ID 26]
- IC50 [4]: < 1000 pM

B3: aptamer ID 26(10) (ssRNA)
RNA: GGGAGACUCGCCAGAGUUGAAAGAAACCCAAAUAAGUGUGCGCAC
modifications: 5' and 3' idT; 2'-F all pyrimidines; 2'-OMe all purines except ribo g3,g5,g19,a20,a21,a22,a24
- IC50 [5]: 47 pM

B4: aptamer ID 26(30) (mixed)
RNA: GGGAGACUCGCCAGAGUUGAAAGAAACCCAAAUAAGUGUGCGCAC
modifications: as 26(19) (5' and 3' idT; 2'-F pyrimidines; 2'-OMe purines except ribo g3,g19,a20,a26) but c45 is dC
- IC50 [6]: 289 pM

B5: aptamer ID 26(32) (ssRNA)
RNA: GGGAGACUCGCCAGAGUUGAAAGAAACCCAAAUAAGUGUGCGCAC
modifications: as 26(19) (5' and 3' idT; 2'-F pyrimidines; 2'-OMe purines except ribo g3,g19,a20,a26) but c11 is 2'-OMe
- IC50 [7]: 220 pM

B6: aptamer ID 26(33) (ssRNA)
RNA: GGGAGACUCGCCAGAGUUGAAAGAAACCCAAAUAAGUGUGCGCAC
modifications: as 26(19) (5' and 3' idT; 2'-F pyrimidines; 2'-OMe purines except ribo g3,g19,a20,a26) but c12 is 2'-OMe
- IC50 [8]: 294 pM

B7: aptamer ID 26(34) (ssRNA)
RNA: GGGAGACUCGCCAGAGUUGAAAGAAACCCAAAUAAGUGUGCGCAC
modifications: as 26(19) (5' and 3' idT; 2'-F pyrimidines; 2'-OMe purines except ribo g3,g19,a20,a26) but u33 is 2'-OMe
- IC50 [9]: 247 pM

B8: aptamer ID 26(35) (ssRNA)
RNA: GGGAGACUCGCCAGAGUUGAAAGAAACCCAAAUAAGUGUGCGCAC
modifications: as 26(19) (5' and 3' idT; 2'-F pyrimidines; 2'-OMe purines except ribo g3,g19,a20,a26) but c45 is 2'-OMe
- IC50 [10]: 166 pM

B9: aptamer ID 26(39) (ssRNA)
RNA: GGGAGACUCGCCAGAGUUGAAAGAAACCCAAAUAAGUGUGCGCAC
modifications: as 26(19) (5' and 3' idT; 2'-F pyrimidines; 2'-OMe purines except ribo g3,g19,a20,a26) but c7 is 2'-OMe; PS between a25 and a26
- IC50 [11]: 168 pM

B10: aptamer ID 26(40) (ssRNA)
RNA: GGGAGACUCGCCAGAGUUGAAAGAAACCCAAAUAAGUGUGCGCAC
modifications: as 26(19) (5' and 3' idT; 2'-F pyrimidines; 2'-OMe purines except ribo g3,g19,a20,a26) but c7 is 2'-OMe; PS between a26 and c27
- IC50 [12]: 247 pM

B11: aptamer ID 26(45) (ssRNA)
RNA: GGGAGACUCGCCAGAGUUGAAAGAAACCCAAAUAAGUGUGCGCAC
modifications: 5' and 3' idT; 2'-OMe purines except ribo g3,g19,a20,a26; 2'-OMe c7,c9,c11,c12,u17,u33,c45; other pyrimidines 2'-F
- IC50 [13]: 238 pM

B12: aptamer ID 26(46) (ssRNA)
RNA: GGGAGACUCGCCAGAGUUGAAAGAAACCCAAAUAAGUGUGCGCAC
modifications: 5' and 3' idT; 2'-OMe purines except ribo g3,g19,a20,a26; 2'-OMe c7,u8,c11,c12,u17,u33,c45; other pyrimidines 2'-F
- IC50 [14]: 97 pM

B13: aptamer ID 26(47) (ssRNA)
RNA: GGGAGACUCGCCAGAGUUGAAAGAAACCCAAAUAAGUGUGCGCAC
modifications: 5' and 3' idT; 2'-OMe purines except ribo g3,g19,a20,a26; 2'-OMe c7,c11,c12,u17,u33,u37,c45; other pyrimidines 2'-F
- IC50 [15]: 65 pM

— patent publication US20130052176, “APTAMER FOR NGF AND USE THEREOF” (SHIONOGI & CO., LTD, published 2013)
